# Source: publication PMC3605791 (Nature structural & molecular biology, 2012)
# Experiments:
# [1] = biological target: VAMP7 longin domain (Mus musculus) (UniProt P70280); conditions: cited from earlier work
# Varp(658–921)His6 [2] = biological target: T1, Varp(658–921)His6 (human, UniProt Q96NW4 658-921); assay: pull-down
# Varp(658–921)His6 [3] = biological target: T1, Varp(658–921)His6; assay: ITC
# T1 sequence (Q96NW4 658-921): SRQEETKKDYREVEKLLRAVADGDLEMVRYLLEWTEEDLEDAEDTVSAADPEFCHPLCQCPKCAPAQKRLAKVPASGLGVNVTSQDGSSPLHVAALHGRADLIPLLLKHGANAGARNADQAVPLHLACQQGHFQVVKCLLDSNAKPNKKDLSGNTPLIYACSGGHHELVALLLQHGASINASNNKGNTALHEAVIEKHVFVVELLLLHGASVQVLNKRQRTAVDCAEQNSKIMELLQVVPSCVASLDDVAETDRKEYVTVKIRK
# Varp (construct not stated, KD with Rab38:GTP or Rab32:GTP), sequence (Q96NW4 whole entry): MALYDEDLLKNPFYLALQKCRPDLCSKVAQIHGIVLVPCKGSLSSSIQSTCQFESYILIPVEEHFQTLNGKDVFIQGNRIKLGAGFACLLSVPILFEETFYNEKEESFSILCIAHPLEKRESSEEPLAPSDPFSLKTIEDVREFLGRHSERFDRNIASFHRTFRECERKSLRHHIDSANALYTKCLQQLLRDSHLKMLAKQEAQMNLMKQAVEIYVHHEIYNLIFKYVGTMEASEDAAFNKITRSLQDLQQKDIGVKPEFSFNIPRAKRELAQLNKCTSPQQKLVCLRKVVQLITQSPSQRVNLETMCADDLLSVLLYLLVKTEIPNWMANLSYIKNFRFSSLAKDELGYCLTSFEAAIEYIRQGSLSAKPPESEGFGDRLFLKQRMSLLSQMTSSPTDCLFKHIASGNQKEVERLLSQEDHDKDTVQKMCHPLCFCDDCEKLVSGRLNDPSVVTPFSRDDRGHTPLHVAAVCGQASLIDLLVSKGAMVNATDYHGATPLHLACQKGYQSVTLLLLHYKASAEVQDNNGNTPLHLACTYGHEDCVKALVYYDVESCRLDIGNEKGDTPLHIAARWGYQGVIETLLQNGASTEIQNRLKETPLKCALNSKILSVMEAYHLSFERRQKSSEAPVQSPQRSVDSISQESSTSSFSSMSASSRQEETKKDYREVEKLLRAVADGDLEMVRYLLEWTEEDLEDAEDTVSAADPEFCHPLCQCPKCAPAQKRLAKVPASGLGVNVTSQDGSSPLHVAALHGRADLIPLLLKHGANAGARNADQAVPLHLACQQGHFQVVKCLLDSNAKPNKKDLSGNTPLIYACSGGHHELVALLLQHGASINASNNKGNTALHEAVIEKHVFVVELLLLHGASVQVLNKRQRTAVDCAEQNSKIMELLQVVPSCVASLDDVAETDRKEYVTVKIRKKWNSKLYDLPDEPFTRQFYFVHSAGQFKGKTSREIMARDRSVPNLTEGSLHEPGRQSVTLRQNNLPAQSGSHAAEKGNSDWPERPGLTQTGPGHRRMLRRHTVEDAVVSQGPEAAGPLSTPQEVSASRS
# Hrb, sequence (P52594 whole entry): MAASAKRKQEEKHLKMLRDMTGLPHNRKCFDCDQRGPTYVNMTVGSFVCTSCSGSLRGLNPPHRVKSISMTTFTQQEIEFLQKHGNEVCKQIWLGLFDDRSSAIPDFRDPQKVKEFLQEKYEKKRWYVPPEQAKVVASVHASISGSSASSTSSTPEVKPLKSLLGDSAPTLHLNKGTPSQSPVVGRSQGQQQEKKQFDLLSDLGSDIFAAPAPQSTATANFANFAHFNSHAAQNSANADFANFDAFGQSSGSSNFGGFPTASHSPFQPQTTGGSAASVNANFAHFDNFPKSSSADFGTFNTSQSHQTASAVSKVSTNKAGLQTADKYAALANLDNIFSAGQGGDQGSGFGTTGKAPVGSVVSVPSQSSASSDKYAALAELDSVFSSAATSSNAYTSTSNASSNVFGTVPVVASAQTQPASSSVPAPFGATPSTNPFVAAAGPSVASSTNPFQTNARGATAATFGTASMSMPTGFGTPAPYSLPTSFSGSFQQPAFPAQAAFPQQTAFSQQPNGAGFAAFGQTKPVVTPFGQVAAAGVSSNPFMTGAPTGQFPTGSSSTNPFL
Molecule,Kd (Varp(658–921)His6 [3]) [µM],other results
Hrb (from UniProt P52594),,Kd [1]: 10 µM
"Varp (construct not stated, KD with Rab38:GTP or Rab32:GTP) (from UniProt Q96NW4 1-1050) (natural protein)",,Kd (Rab38:GTP or Rab32:GTP): 2 to 5 µM
GSTVAMP7 residues 1–160 (domain or fragment) MAILFAVVARGTTILAKHAWCGGNFLEVTEQILAKIPSENNKLTYSHGNYLFHYICQDRIVYLCITDDDFERSRAFSFLNEVKKRFQTTYGSRAQTALPYAMNSEFSSVLAAQLKHHSENKSLDKVMETQAQVDELKGIMVRNIDLVAQRGERLELLIDK,,binding result (Varp(658–921)His6 [2]): binds
VAMP7 CD (1–188) (domain or fragment) MAILFAVVARGTTILAKHAWCGGNFLEVTEQILAKIPSENNKLTYSHGNYLFHYICQDRIVYLCITDDDFERSRAFSFLNEVKKRFQTTYGSRAQTALPYAMNSEFSSVLAAQLKHHSENKSLDKVMETQAQVDELKGIMVRNIDLVAQRGERLELLIDKTENLVDSSVTFKTTSRNLARAMCMKNIK,2.3,

# Now from value to molecule, other results behind:
Kd (Varp(658–921)His6 [3]) [µM],Molecule,other results
> 300,VAMP7 R72A (domain or fragment) MAILFAVVARGTTILAKHAWCGGNFLEVTEQILAKIPSENNKLTYSHGNYLFHYICQDRIVYLCITDDDFEASRAFSFLNEVKKRFQTTYGSRAQTALPYAMNSEFSSVLAAQLKHHSENKSLDKVMETQAQVDELKGIMVRNIDLVAQRGERLELLIDKTENLVDSSVTFKTTSRNLARAMCMKNIK,
> 300,VAMP7 D69A E71F S73D (domain or fragment) MAILFAVVARGTTILAKHAWCGGNFLEVTEQILAKIPSENNKLTYSHGNYLFHYICQDRIVYLCITDDAFFRDRAFSFLNEVKKRFQTTYGSRAQTALPYAMNSEFSSVLAAQLKHHSENKSLDKVMETQAQVDELKGIMVRNIDLVAQRGERLELLIDKTENLVDSSVTFKTTSRNLARAMCMKNIK,
